Biological target: T1, Mcm10Δ150 (LexA fusion) (S. cerevisiae, UniProt P32354 151-571)
T1 construct: Mcm10, budding yeast, first 150 amino acids deleted; also called pBTM116-LEXA-mcm10Δ150; LexA-tagged Mcm10Δ150; source: yeast two-hybrid fusion (pBTM116); also overexpressed from the ADH1 promoter in yeast, in whole cell extract, for Co-IP
T1 sequence (looked up): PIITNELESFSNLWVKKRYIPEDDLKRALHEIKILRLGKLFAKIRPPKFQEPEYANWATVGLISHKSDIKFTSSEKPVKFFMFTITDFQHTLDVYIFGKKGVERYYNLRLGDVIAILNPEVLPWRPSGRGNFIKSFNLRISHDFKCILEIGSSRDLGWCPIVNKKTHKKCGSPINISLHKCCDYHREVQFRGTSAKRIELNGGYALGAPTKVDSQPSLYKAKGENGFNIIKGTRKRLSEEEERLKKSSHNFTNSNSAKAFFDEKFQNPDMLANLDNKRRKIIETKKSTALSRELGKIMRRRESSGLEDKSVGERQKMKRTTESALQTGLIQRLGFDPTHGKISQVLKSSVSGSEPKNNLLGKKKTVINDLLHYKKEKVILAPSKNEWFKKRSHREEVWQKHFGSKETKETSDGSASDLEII
Assay: two-hybrid; yeast two-hybrid with pBTM116 (LexA) and pACT2 fusions; β-galactosidase activity in cell extracts, in triplicate from at least three clones
Details: partners not purified

B1: Mcm10 (LexA fusion, wild type) (natural protein, S. cerevisiae, UniProt P32354 1-571, looked up)
chain: MNDPREILAVDPYNNITSDEEDEQAIARELEFMERKRQALVERLKRKQEFKKPQDPNFEAIEVPQSPTKNRVKVGSHNATQQGTKFEGSNINEVRLSQLQQQPKPPASTTTYFMEKFQNAKKNEDKQIAKFESMMNARVHTFSTDEKKYVPIITNELESFSNLWVKKRYIPEDDLKRALHEIKILRLGKLFAKIRPPKFQEPEYANWATVGLISHKSDIKFTSSEKPVKFFMFTITDFQHTLDVYIFGKKGVERYYNLRLGDVIAILNPEVLPWRPSGRGNFIKSFNLRISHDFKCILEIGSSRDLGWCPIVNKKTHKKCGSPINISLHKCCDYHREVQFRGTSAKRIELNGGYALGAPTKVDSQPSLYKAKGENGFNIIKGTRKRLSEEEERLKKSSHNFTNSNSAKAFFDEKFQNPDMLANLDNKRRKIIETKKSTALSRELGKIMRRRESSGLEDKSVGERQKMKRTTESALQTGLIQRLGFDPTHGKISQVLKSSVSGSEPKNNLLGKKKTVINDLLHYKKEKVILAPSKNEWFKKRSHREEVWQKHFGSKETKETSDGSASDLEII
notes: Mcm10, budding yeast, called full-length in the Co-IP with LexA-tagged constructs; also called LexA-tagged Mcm10; full-length Mcm10; source: yeast two-hybrid fusion (pBTM116); also overexpressed in yeast, in whole cell extract, for Co-IP
reduction of binding relative to wild-type Mcm10: ~85%
